Reference: PMC13038415 (Nature Chemical Biology, 2026)
“And” between values parts separate entries of the source, which are not always exact repeats. Identical values can stand only once. Like-named read-outs stand apart in the source and are kept apart here.

Columns and labels:
Experiment in all cases: mass photometry
[1] = biological target: full-length dynein complex AAA3^WB (E2488Q) (yeast, UniProt P36022 1-4092; P40960 1-533; Q04949 1-312; Q02647 1-92, E2488Q)
[2] = biological target: T1, full-length dynein complex AAA3^WA (dynein-K2424A) (yeast, UniProt P36022 1-4092; P40960 1-533; Q04949 1-312; Q02647 1-92, K2424A)
T1 sequence (P36022 whole entry K2424A, chain 1 of 4): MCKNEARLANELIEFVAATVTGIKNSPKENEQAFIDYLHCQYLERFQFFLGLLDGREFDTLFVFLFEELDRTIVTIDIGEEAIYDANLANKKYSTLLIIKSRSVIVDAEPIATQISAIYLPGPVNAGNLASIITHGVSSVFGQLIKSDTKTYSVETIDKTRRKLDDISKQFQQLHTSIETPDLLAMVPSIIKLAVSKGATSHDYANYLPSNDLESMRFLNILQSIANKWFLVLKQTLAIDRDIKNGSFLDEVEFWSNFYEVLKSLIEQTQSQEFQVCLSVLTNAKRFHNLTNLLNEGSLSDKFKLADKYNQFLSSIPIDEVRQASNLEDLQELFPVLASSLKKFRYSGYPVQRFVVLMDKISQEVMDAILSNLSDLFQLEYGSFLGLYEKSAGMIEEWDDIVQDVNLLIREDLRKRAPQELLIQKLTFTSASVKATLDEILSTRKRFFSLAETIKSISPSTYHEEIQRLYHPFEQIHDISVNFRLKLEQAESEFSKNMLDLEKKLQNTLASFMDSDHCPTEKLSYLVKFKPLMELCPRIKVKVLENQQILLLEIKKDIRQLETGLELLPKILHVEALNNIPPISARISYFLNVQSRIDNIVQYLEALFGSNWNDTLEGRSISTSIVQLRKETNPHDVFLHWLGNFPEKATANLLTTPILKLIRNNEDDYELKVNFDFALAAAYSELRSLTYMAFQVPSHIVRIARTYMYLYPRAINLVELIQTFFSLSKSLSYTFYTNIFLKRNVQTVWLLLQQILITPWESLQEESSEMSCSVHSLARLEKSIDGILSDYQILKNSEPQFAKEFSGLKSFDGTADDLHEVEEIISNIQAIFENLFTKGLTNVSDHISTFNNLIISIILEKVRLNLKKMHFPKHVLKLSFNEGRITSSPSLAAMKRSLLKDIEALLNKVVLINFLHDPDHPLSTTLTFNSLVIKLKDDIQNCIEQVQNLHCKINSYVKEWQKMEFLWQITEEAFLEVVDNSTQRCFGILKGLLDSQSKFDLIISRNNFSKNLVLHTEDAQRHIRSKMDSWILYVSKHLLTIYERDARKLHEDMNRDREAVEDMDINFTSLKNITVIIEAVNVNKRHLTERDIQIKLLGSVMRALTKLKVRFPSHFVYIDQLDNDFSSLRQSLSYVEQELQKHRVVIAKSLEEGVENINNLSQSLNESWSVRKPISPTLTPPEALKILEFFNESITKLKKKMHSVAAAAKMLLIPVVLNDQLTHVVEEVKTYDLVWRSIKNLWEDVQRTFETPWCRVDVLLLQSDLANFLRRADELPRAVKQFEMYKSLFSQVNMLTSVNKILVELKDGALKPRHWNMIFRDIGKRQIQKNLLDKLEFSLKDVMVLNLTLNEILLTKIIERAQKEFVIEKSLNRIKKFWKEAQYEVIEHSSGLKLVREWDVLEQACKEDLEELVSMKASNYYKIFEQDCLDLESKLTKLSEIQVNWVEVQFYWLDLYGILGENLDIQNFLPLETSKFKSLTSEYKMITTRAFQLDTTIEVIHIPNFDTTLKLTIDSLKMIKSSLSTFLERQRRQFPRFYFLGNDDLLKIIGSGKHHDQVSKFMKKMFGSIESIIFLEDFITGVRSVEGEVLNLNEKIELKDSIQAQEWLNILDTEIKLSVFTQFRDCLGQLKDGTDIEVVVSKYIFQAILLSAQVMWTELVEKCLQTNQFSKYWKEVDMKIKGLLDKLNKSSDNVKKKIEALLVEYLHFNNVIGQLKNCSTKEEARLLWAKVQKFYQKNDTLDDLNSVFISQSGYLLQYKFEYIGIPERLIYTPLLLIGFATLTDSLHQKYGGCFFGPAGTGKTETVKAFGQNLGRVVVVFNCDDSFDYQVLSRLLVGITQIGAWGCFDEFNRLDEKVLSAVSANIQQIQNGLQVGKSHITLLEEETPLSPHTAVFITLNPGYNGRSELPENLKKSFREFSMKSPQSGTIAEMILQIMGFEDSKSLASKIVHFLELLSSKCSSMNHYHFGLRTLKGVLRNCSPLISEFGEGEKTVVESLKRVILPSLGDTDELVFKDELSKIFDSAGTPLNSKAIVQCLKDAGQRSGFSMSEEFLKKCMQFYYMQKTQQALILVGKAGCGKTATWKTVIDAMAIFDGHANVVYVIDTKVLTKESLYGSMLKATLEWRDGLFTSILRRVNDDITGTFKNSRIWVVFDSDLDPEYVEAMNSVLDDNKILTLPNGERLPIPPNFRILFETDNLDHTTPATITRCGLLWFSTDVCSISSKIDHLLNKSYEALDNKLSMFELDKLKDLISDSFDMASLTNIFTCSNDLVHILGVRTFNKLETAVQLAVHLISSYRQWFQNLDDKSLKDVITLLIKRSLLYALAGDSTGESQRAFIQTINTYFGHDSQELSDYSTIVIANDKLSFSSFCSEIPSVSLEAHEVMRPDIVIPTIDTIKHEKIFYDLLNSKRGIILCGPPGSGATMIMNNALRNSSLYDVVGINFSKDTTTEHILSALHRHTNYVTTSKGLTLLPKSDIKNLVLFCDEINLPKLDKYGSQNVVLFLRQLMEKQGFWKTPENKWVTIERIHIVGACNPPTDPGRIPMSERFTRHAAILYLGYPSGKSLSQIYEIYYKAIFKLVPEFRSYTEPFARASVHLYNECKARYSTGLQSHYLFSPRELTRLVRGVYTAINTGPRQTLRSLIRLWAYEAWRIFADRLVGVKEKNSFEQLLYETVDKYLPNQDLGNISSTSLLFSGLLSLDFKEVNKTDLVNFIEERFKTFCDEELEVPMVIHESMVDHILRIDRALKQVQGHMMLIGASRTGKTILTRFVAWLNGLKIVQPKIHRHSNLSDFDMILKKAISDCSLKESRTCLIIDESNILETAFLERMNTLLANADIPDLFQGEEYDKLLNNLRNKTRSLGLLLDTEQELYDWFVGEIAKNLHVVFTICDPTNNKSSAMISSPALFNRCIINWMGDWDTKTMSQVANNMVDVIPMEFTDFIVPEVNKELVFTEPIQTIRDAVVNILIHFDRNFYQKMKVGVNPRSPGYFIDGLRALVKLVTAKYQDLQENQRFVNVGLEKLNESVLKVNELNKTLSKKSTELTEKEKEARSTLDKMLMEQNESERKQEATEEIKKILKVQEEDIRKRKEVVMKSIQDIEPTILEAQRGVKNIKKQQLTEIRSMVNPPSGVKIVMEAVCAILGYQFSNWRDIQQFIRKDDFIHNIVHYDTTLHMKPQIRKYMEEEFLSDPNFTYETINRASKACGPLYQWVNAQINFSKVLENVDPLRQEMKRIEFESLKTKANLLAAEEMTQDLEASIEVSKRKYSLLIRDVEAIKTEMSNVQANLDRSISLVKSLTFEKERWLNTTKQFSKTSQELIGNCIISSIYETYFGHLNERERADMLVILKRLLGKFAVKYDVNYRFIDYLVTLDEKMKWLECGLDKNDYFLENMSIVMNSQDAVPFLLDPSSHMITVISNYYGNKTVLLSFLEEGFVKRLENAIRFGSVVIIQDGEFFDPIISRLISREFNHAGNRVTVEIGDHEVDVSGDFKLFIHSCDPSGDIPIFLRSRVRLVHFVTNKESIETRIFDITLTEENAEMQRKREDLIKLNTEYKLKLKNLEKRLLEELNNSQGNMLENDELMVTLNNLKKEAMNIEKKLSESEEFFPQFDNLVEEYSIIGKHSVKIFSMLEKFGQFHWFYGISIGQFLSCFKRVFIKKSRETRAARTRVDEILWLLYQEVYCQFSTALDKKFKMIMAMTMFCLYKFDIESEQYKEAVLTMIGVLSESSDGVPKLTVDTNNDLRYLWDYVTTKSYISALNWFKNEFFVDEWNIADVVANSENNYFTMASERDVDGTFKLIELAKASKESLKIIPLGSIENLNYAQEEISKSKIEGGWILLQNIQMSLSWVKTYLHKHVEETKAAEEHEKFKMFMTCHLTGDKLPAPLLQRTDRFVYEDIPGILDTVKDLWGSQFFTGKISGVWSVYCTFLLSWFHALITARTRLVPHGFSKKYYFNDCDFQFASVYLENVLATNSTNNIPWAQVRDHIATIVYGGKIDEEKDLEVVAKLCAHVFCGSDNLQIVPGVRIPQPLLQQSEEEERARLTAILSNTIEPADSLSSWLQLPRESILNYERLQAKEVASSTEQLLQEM
T1 sequence (P40960 whole entry, chain 2 of 4): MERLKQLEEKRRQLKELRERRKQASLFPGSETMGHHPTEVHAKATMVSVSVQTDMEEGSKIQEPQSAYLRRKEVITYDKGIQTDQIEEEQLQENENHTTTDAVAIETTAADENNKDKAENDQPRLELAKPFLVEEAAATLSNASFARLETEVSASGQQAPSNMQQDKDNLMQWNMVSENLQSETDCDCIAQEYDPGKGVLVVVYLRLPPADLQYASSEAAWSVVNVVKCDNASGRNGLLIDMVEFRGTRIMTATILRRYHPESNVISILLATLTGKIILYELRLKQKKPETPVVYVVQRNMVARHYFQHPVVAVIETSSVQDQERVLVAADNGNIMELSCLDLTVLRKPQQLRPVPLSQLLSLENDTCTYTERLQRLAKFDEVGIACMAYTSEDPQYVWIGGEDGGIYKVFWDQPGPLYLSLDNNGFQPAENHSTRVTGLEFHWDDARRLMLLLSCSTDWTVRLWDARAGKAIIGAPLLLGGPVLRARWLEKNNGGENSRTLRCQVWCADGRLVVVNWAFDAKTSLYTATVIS
T1 sequence (Q04949 whole entry, chain 3 of 4): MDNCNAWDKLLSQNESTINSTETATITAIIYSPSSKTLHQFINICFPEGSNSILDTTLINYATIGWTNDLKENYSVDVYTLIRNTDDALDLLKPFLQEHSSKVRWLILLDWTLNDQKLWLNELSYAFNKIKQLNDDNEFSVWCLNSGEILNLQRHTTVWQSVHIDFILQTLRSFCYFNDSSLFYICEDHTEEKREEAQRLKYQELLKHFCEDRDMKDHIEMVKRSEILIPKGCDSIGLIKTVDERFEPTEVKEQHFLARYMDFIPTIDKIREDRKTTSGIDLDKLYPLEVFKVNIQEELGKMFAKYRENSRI
T1 sequence (Q02647 whole entry, chain 4 of 4): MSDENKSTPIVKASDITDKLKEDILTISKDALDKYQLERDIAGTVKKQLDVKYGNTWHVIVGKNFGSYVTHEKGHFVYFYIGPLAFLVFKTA

[3] = biological target: T1, full-length dynein complex AAA3^WA …; remark: listed apart in the source
[4] = biological target: T1, full-length dynein complex AAA3^WA …; remark: listed apart in the source

B1: Pac1 (full-length; yeast homolog of Lis1) (natural protein)
chain: MTNWQQQLPLTDTQKNELDKSVLRYLNWNYKQTVRHEHAQDYESVRHAIVTLSGFLLQESVDRQEFISNNDTSNESMVDIDELLLPKKWNSIVRLQKKIIELEQNTETLVSQIKDLNTQVSELAQFKPTTSNGTSAHNVLKWIPRNLPSCLINVESSVTSVKLHPNLPIVFVATDHGKLYAFDLFNYTIPLASLQSHTKAITSMDVLFTNYTNSSKKNYLVIVTASKDLQIHVFKWVSEECKFQQIRSLLGHEHIVSAVKIWQKNNDVHIASCSRDQTVKIWDFHNGWSLKTFQPHSQWVRSIDVLGDYIISGSHDTTLRLTHWPSGNGLSVGTGHEFPIEKVKFIHFIEDSPEIRFRTPSTDRYKNWGMQYCVSASRDRTIKIWEIPLPTLMAHRAPIPNPTDSNFRCVLTLKGHLSWVRDISIRGQYLFSCADDKSVRCWDLNTGQCLHVWEKLHTGFVNCLDLDVDFDSNVTPRQMMVTGGLDCKSNVFMR
stoichiometry N [1]: 1 Pac1 dimer per dynein complex and 2 Pac1 dimers per dynein complex
stoichiometry N [2]: 1 Pac1 dimer per dynein complex
stoichiometry N [3]: 2 Pac1 dimers per dynein complex

B2: Pac1 site^linker mutant (T403A, S405A, N406A, R320A, V332A) (natural protein)
chain: MTNWQQQLPLTDTQKNELDKSVLRYLNWNYKQTVRHEHAQDYESVRHAIVTLSGFLLQESVDRQEFISNNDTSNESMVDIDELLLPKKWNSIVRLQKKIIELEQNTETLVSQIKDLNTQVSELAQFKPTTSNGTSAHNVLKWIPRNLPSCLINVESSVTSVKLHPNLPIVFVATDHGKLYAFDLFNYTIPLASLQSHTKAITSMDVLFTNYTNSSKKNYLVIVTASKDLQIHVFKWVSEECKFQQIRSLLGHEHIVSAVKIWQKNNDVHIASCSRDQTVKIWDFHNGWSLKTFQPHSQWVRSIDVLGDYIISGSHDTTLALTHWPSGNGLSAGTGHEFPIEKVKFIHFIEDSPEIRFRTPSTDRYKNWGMQYCVSASRDRTIKIWEIPLPTLMAHRAPIPNPADAAFRCVLTLKGHLSWVRDISIRGQYLFSCADDKSVRCWDLNTGQCLHVWEKLHTGFVNCLDLDVDFDSNVTPRQMMVTGGLDCKSNVFMR
binding result [4]: binds
